Substrate in data set [1]: NC(=O)C1=CN([C@@H]2O[C@H](COP(=O)(O)OP(=O)(O)OC[C@H]3O[C@@H](n4cnc5c(N)ncnc54)[C@H](OP(=O)(O)O)[C@@H]3O)[C@@H](O)[C@H]2O)C=CC1
Kind of data set: purified protein. The conditions noted are these: 3-DAA made in situ by CmaA6 from 1.0 mM 3-AAA, pH 8.0, varied: cofactor. The class given is biochemical, Streptomyces sp.

Substrate in data set [2]: [N-]=[N+]=C1C=C(/C=C/C=C/C(=O)O)C=CC1=O
Nature of the data set: purified protein. The class given is biochemical, Streptomyces sp. The conditions noted are these: 800 µM NADPH, 3-DAA made in situ by CmaA6, 25-400 µM, pH 8.0.

B1: AvaA7 (Streptomyces sp.) (protein)
chain: MRVLVAGATGVIGHPLVGALRARGHNVSALVRDASRAPEADRVVVADALDREAVLSAVSAARPEVVVHQLTALRLLRDDPPEAFAQTARLRTEGTAHLVEAARAAGARRLVAQSIAFAAAPQGPPVLDEDAPLYVDAPDPGWAATVRAVAELERLVASSDLAGLVLRYGTLYGPGTGYARDGGTALRVLAGKLPLPEGGAGVTSFLHVDDAVGAAVAAVESEATGCLHVTDDEPAPAAQWLPHYARTLGAPPPRTLPAALAPRLLGWFMTHQLTTARGAANDRARTALGWKPTHPSWRDGLGRE
notes: recombinant
For the protein B1, in data set [1], the Km is 138 ± 10 µM, the kcat was 4.433 ± 0.0333 s⁻¹ and the kcat/Km came to 31700 M⁻¹ s⁻¹. Further, in data set [2], the Michaelis-Menten constant (Km) is 152 ± 31 µM, the kcat came out at 10.2 ± 0.917 s⁻¹ and the kcat/Km was found to be 66700 M⁻¹ s⁻¹.

Usually Km stands for the concentration of substrate that gives half-maximal velocity. Broadly, the kcat is the number of substrate molecules converted per active site and unit of time at saturation. The kcat/Km is the turnover number divided by the Michaelis constant.

For the origin of these results see publication PMC10777205, “Identification of the p-coumaric acid biosynthetic gene cluster in Kutzneria albida: insights into the diazotization-dependent deamination pathway” (Beilstein Journal of Organic Chemistry, 2024).
